Source: patent US9724381B2 (THE ADMINISTRATORS OF THE TULANE EDUCATIONAL FUND, priority 2009, dated 2017)
Blank lines part the entries; values can stand above or below the substance they belong to. Where no end group is shown, it is not given here. [ ]: non-standard residue; d: D form. d1Nal = N[C@H](Cc1cccc2ccccc12)C(=O)O; d2Nal = N[C@H](Cc1ccc2ccccc2c1)C(=O)O; Cha = N[C@@H](CC1CCCCC1)C(=O)O; dCha = N[C@H](CC1CCCCC1)C(=O)O; Nle = CCCC[C@H](N)C(=O)O; Orn = NCCC[C@H](N)C(=O)O; Dab = NCC[C@H](N)C(=O)O; dPal = not defined here; Aib = CC(C)(N)C(=O)O; Inp = O=C(O)C1CCNCC1; GABA = NCCCC(=O)O

Columns and labels:
[1] = molecular target: T1, Ghrelin/GHRP/GHS Receptor (Rattus norvegicus, UniProt O08725); assay: In vitro GH release from cell culture of pituitary cells; format: cell-based; design: After dispersion, the cells were collected by centrifugation, wash with DMEM and placed into culture well; endogenous in cells; host or cells: dispersed primary rat anterior pituitary cells; settings: Table 8
Description: In vitro GH Release-Female rats of the CD-1 strain were housed in a constant temperature room at 24° C. with 14 h light and 10 h darkness. The rats were fed Purina Rat chow and water at libitum. All studies were started between 0800-1000 hours. Pituitaries of mature female Sprague Dawley rats were rapidly removed after decapitation, neurointermediate lobe discarded and then placed in a pH 7.4 buffer. The pituitaries were cut into ˜3-mm pieces and then transferred to a flask containing HEPS buffer with trypsin and incubated at 37° C. Cells were triturated several times during this period. After dispersion, the cells were collected by centrifugation, wash with DMEM and placed into culture well. Cell cultures were maintained for 4 days at 37° with 8% CO2 added to the incubator atmosphere. After 4 days in culture, cells were washed with lactated Ringer's solution adjusted to pH 7.2-7.4 and then vehicle, peptide alone or peptide plus stimulator was added to media. Incubation time was 60-120 minutes after which media was removed from each well for GH determination. The GH RIA reagents were distributed by the NIH. Control data was collected from cell cultures treated with only the corresponding vehicle in the absence of peptide or stimulator. Control stimulated data was collected from cell cultures treated with stimulator alone in the absence of any peptide.

[2] = molecular target: T1, Ghrelin/GHRP/GHS Receptor; assay: In vivo GH release in rat (serum GH by RIA after i.v. peptide); settings: for Unstimulated Basal GH release from rats: Table 5; for Unstimulated Basal GH Release from rat: Table 3; for Unstimulated GH release from rats: −S; for Stimulated GH release from rat: Table 2
Description: For the in vivo assay of GH Release in rat, immature female Sprague Dawley rats were obtained from Charles River from Wilmington, Mass. After arrival they were housed at 25° C. with a 14:10 h light:dark cycle. Water and Purina rat chow were available at libitum. Pups were weaned at 21 days of age.
Immature twenty six day old female Sprague Dawley rats, 3-6 rats per treatment dose, were pretreated with pentobarbital 20 minutes before iv injection of vehicle/peptide or peptide plus stimulator. Injection was made as a 0.1 ml solution. For the non-pentobarbital treated rat assay, peptides were administered iv into the tail vein of conscious rats. All animals were sacrificed by guillotine after iv peptide or vehicle. Trunk blood was collected at +10-15 minutes […], allowed to clot, centrifuged and serum stored until assayed for GH levels by RIA. The GH RIA reagents were distributed by the NIH. Control data was collected from rats treated with only the corresponding vehicle in the absence of peptide or stimulator. Control stimulated data was collected from rats treated with stimulator alone in the absence of any peptide.

[3] = peptide antagonist dosage 3 (head prints μg/i.v.)
[4] = peptide antagonist dosage 10 (head prints μg/i.v.)
[5] = peptide antagonist dosage 30 (head prints μg/i.v.)
[6] = peptide antagonist dosage 100 (head prints μg/i.v.)
[7] = peptide antagonist dosage 1 (head prints μg/i.v.)
[8] = peptide antagonist alone 1 μg i.v.
[9] = peptide antagonist alone 10 μg i.v.
[10] = peptide antagonist alone 30 μg i.v.

T1 sequence (O08725 whole entry): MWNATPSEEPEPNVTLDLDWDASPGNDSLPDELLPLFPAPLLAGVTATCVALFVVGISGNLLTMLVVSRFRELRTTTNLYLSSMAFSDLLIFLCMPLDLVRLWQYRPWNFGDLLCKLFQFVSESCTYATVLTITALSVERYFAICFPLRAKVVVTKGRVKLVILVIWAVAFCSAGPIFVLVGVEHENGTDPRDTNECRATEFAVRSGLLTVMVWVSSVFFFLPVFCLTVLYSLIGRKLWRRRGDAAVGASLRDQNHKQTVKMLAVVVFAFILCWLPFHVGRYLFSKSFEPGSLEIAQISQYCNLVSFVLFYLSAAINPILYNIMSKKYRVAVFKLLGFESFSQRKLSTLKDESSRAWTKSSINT

Unstimulated Basal GH release from cell cultures of pituitary cells [1, 3]: 1146 ± 34 ng/mL | Unstimulated Basal GH release from cell cultures of pituitary cells [1, 4]: 1086 ± 32 ng/mL | Unstimulated Basal GH release from cell cultures of pituitary cells [1, 5]: 871 ± 89 ng/mL
Substance: DPhe-Trp-DPhe-Phe-Met-NH2 ([dF]W[dF]FM-NH2; N-terminus assumed; SMILES CSCC[C@H](NC(=O)[C@H](Cc1ccccc1)NC(=O)[C@@H](Cc1ccccc1)NC(=O)[C@H](Cc1c[nH]c2ccccc12)NC(=O)[C@H](N)Cc1ccccc1)C(N)=O)

Substance: Ac-DLys-Tyr-DTrp-DTrp-Phe-NH2 (Ac-[dK]Y[dW][dW]F-NH2; SMILES CC(=O)N[C@H](CCCCN)C(=O)N[C@@H](Cc1ccc(O)cc1)C(=O)N[C@H](Cc1c[nH]c2ccccc12)C(=O)N[C@H](Cc1c[nH]c2ccccc12)C(=O)N[C@@H](Cc1ccccc1)C(N)=O)
Unstimulated Basal GH release from cell cultures of pituitary cells [1, 3]: 105 ± 8 ng/mL | Unstimulated Basal GH release from cell cultures of pituitary cells [1, 4]: 950 ± 91 ng/mL | Unstimulated Basal GH release from cell cultures of pituitary cells [1, 5]: 782 ± 56 ng/mL | Unstimulated Basal GH release from cell cultures of pituitary cells [1, 6]: 756 ± 1 ng/mL

Unstimulated Basal GH release from cell cultures of pituitary cells [1, 3]: 170 ± 19 ng/mL | Unstimulated Basal GH release from cell cultures of pituitary cells [1, 4]: 181 ± 31 ng/mL | Unstimulated Basal GH release from cell cultures of pituitary cells [1, 5]: 161 ± 20 ng/mL | Unstimulated Basal GH release from cell cultures of pituitary cells [1, 6]: 146 ± 21 ng/mL
Substance: DPhe-Ala-Phe-DPal-NH2 ([dF]AF[dPal]-NH2; reading uncertain; also: printed as DPhe-Ala-Phe-DPal-NH2)

Unstimulated Basal GH release from cell cultures of pituitary cells [1, 7]: 286 ± 75 ng/mL | Unstimulated Basal GH release from cell cultures of pituitary cells [1, 3]: 177 ± 44 ng/mL | Unstimulated Basal GH release from cell cultures of pituitary cells [1, 4]: 271 ± 38 ng/mL | Unstimulated Basal GH release from cell cultures of pituitary cells [1, 5]: 376 ± 28 ng/mL
Substance: DAla-DcyclohexylAla-Ala-Ala-Phe-DPhe-Nle-NH2 ([dA][dCha]AAF[dF][Nle]-NH2; N-terminus assumed; SMILES CCCC[C@H](NC(=O)[C@@H](Cc1ccccc1)NC(=O)[C@H](Cc1ccccc1)NC(=O)[C@H](C)NC(=O)[C@H](C)NC(=O)[C@@H](CC1CCCCC1)NC(=O)[C@@H](C)N)C(N)=O)

Unstimulated Basal GH release from cell cultures of pituitary cells [1, 7]: 1086 ± 52 ng/mL | Unstimulated Basal GH release from cell cultures of pituitary cells [1, 3]: 1103 ± 18 ng/mL | Unstimulated Basal GH release from cell cultures of pituitary cells [1, 4]: 994 ± 22 ng/mL | Unstimulated Basal GH release from cell cultures of pituitary cells [1, 5]: 704 ± 115 ng/mL
Substance: αAib-DTrp-DAla-cyclohexylAla-NH2 ([Aib][dW][dA][Cha]-NH2; N-terminus assumed; SMILES C[C@@H](NC(=O)[C@@H](Cc1c[nH]c2ccccc12)NC(=O)C(C)(C)N)C(=O)N[C@@H](CC1CCCCC1)C(N)=O)

Unstimulated Basal GH release from rats [2, 8]: 80 ± 35 ng/mL | Unstimulated Basal GH release from rats [2, 9]: 62 ± 15 ng/mL | Unstimulated Basal GH release from rats [2, 10]: 67 ± 8 ng/mL
Substance: αγAbu-DTrp-DTrp-Ser-NH2 ([Dab][dW][dW]S-NH2; N-terminus assumed; SMILES NCC[C@H](N)C(=O)N[C@H](Cc1c[nH]c2ccccc12)C(=O)N[C@H](Cc1c[nH]c2ccccc12)C(=O)N[C@@H](CO)C(N)=O)

Unstimulated Basal GH Release from rat ([2]; peptide alone 3 μg i.v.): 181 ± 28 ng/mL | Unstimulated Basal GH Release from rat ([2]; peptide alone 10 μg i.v.): 237 ± 18 ng/mL | Unstimulated Basal GH Release from rat ([2]; peptide alone 30 μg i.v.): 354 ± 81 ng/mL | Unstimulated Basal GH Release from rat ([2]; peptide alone 100 μg i.v.): 771 ± 76 ng/mL
Substance: DcyclohexylAla-Ala-Trp-DPhe-NH2 ([dCha]AW[dF]-NH2; N-terminus assumed; SMILES C[C@H](NC(=O)[C@H](N)CC1CCCCC1)C(=O)N[C@@H](Cc1c[nH]c2ccccc12)C(=O)N[C@H](Cc1ccccc1)C(N)=O)

Substance: DLys-DβNal-Ala-Trp-DPhe-Lys-NH2 ([dK][d2Nal]AW[dF]K-NH2; N-terminus assumed; SMILES C[C@H](NC(=O)[C@@H](Cc1ccc2ccccc2c1)NC(=O)[C@H](N)CCCCN)C(=O)N[C@@H](Cc1c[nH]c2ccccc12)C(=O)N[C@H](Cc1ccccc1)C(=O)N[C@@H](CCCCN)C(N)=O)
Unstimulated GH release from rats ([2]; Table 4, pentobarbital rats, peptide 3 μg i.v.): 616 ± 169 ng/mL | Unstimulated GH release from rats ([2]; Table 4, pentobarbital rats, peptide 10 μg i.v.): 847 ± 17 ng/mL | Unstimulated GH release from rats ([2]; Table 4, pentobarbital rats, peptide 30 μg i.v.): 629 ± 146 ng/mL | Unstimulated GH release from rats ([2]; Table 4, pentobarbital rats, peptide 100 μg i.v.): 228 ± 45 ng/mL

Unstimulated Basal GH release from rats [2, 8]: 60 ± 5 ng/mL | Unstimulated Basal GH release from rats ([2]; peptide antagonist alone 3 μg i.v.): 130 ± 24 ng/mL | Unstimulated Basal GH release from rats [2, 9]: 134 ± 31 ng/mL
Substance: DThr-DαNal-DTrp-DPro-Arg-NH2 ([dT][d1Nal][dW][dP]R-NH2; N-terminus assumed; SMILES C[C@H](O)[C@@H](N)C(=O)N[C@H](Cc1cccc2ccccc12)C(=O)N[C@H](Cc1c[nH]c2ccccc12)C(=O)N1CCC[C@@H]1C(=O)N[C@@H](CCCNC(=N)N)C(N)=O)

Substance: Tyr-DAla-Sar-NMePhe-NH2
Stimulated (S) GH release from rats ([2]; Table 4, non-pentobarbital rats, P + S, peptide 30 μg i.v., stimulator 10 μg): 24 ± 6 ng/mL | Unstimulated GH release from rats ([2]; Table 4, non-pentobarbital rats, peptide 30 μg i.v.): 18 ± 4 ng/mL

Unstimulated Basal GH Release from rat ([2]; peptide alone 1 μg i.v.): 435 ± 152 ng/mL | Unstimulated Basal GH Release from rat ([2]; peptide alone 3 μg i.v.): 195 ± 34 ng/mL | Unstimulated Basal GH Release from rat ([2]; peptide alone 10 μg i.v.): 250 ± 41 ng/mL | Unstimulated Basal GH Release from rat ([2]; peptide alone 30 μg i.v.): 393 ± 51 ng/mL | Unstimulated Basal GH Release from rat ([2]; peptide alone 100 μg i.v.): 697 ± 75 ng/mL
Substance: DAla-DcyclohexylAla-Ala-Phe-DPhe-Nle-NH2 ([dA][dCha]AF[dF][Nle]-NH2; N-terminus assumed; SMILES CCCC[C@H](NC(=O)[C@@H](Cc1ccccc1)NC(=O)[C@H](Cc1ccccc1)NC(=O)[C@H](C)NC(=O)[C@@H](CC1CCCCC1)NC(=O)[C@@H](C)N)C(N)=O)

Unstimulated Basal GH Release from rat ([2]; peptide alone 1 μg i.v.): 67 ± 14 ng/mL | Unstimulated Basal GH Release from rat ([2]; peptide alone 3 μg i.v.): 141 ± 53 ng/mL | Unstimulated Basal GH Release from rat ([2]; peptide alone 10 μg i.v.): 197 ± 70 ng/mL | Unstimulated Basal GH Release from rat ([2]; peptide alone 30 μg i.v.): 509 ± 48 ng/mL
Substance: His-DTrp-Phe-Trp-DPhe-Lys-NH2 (H[dW]FW[dF]K-NH2; N-terminus assumed; SMILES NCCCC[C@H](NC(=O)[C@@H](Cc1ccccc1)NC(=O)[C@H](Cc1c[nH]c2ccccc12)NC(=O)[C@H](Cc1ccccc1)NC(=O)[C@@H](Cc1c[nH]c2ccccc12)NC(=O)[C@@H](N)Cc1c[nH]cn1)C(N)=O)

Unstimulated Basal GH Release from rat ([2]; peptide alone 3 μg i.v.): 255 ± 38 ng/mL | Unstimulated Basal GH Release from rat ([2]; peptide alone 30 μg i.v.): 288 ± 31 ng/mL | Unstimulated Basal GH Release from rat ([2]; peptide alone 100 μg i.v.): 386 ± 57 ng/mL
Substance: DAla-DβNal-Ala-Thr-DThr-Lys-NH2 ([dA][d2Nal]AT[dT]K-NH2; N-terminus assumed; SMILES C[C@H](NC(=O)[C@@H](Cc1ccc2ccccc2c1)NC(=O)[C@@H](C)N)C(=O)N[C@H](C(=O)N[C@@H](C(=O)N[C@@H](CCCCN)C(N)=O)[C@H](C)O)[C@@H](C)O)

Unstimulated Basal GH release from rats [2, 9]: 69 ± 3 ng/mL | Unstimulated Basal GH release from rats [2, 10]: 81 ± 10 ng/mL
Substance: inip-Trp-Trp-Phe-NH2 ([Inp]WWF-NH2; N-terminus assumed; SMILES NC(=O)[C@H](Cc1ccccc1)NC(=O)[C@H](Cc1c[nH]c2ccccc12)NC(=O)[C@H](Cc1c[nH]c2ccccc12)NC(=O)C1CCNCC1)

Stimulated GH release from rat ([2]; peptide antagonist 1 μg i.v. + stimulator DAla-DβNal-Ala-Trp-DPhe-Lys-NH2 1 μg): 2305 ± 320 ng/mL | Stimulated GH release from rat ([2]; peptide antagonist 3 μg i.v. + stimulator DAla-DβNal-Ala-Trp-DPhe-Lys-NH2 1 μg): 1990 ± 196 ng/mL | Stimulated GH release from rat ([2]; peptide antagonist 10 μg i.v. + stimulator DAla-DβNal-Ala-Trp-DPhe-Lys-NH2 1 μg): 1550 ± 284 ng/mL | Stimulated GH release from rat ([2]; peptide antagonist 30 μg i.v. + stimulator DAla-DβNal-Ala-Trp-DPhe-Lys-NH2 1 μg): 946 ± 133 ng/mL | Stimulated GH release from rat ([2]; peptide antagonist 100 μg i.v. + stimulator DAla-DβNal-Ala-Trp-DPhe-Lys-NH2 1 μg): 462 ± 122 ng/mL
Substance: Glyψ[CH2NH]-DβNal-DLys-Trp-DPhe-Lys-NH2 (G[d2Nal][dK]W[dF]K-NH2; also: reduced Gly-ψ[CH2NH] bond between Gly1 and DβNal2)

Unstimulated Basal GH release from rats [2, 8]: 82 ± 28 ng/mL | Unstimulated Basal GH release from rats [2, 9]: 90 ± 5 ng/mL | Unstimulated Basal GH release from rats [2, 10]: 113 ± 32 ng/mL
Substance: [GABA][dW][dW][Orn]-NH2
